# Experimental data from patent publication US20150239983A1 (University of California, published 2015).
# T1: purified PSCA-Fc (human, UniProt O43653 12-83, limits assumed)
# T1 construct: not shown: Fc part
# T1 sequence: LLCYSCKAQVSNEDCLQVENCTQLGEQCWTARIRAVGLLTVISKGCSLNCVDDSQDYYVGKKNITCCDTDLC
# Molecular target: T1, purified PSCA-Fc
# Test: competition ELISA, wells coated with purified PSCA-Fc; reference is the parental 2B3 minibody
# Procedure: The ranking of the four minibodies was determined by competition ELISA and flow cytometry (FIG. 5).
# Competition ELISA: PSCA relative binding affinity for the minibodies was determined by competition ELISA in which microtiter plate wells were coated with purified PSCA-Fc (Olafsen T, et al. J. Irrununotherapy 2007: 30:396).
row,improvement of relative affinity compared to the parental [fold],Binder
1,4.4,"A2 anti-PSCA minibody (other, also called A2 minibody; variant A2) DIQLTQSPSSLSASVGDRVTITCSASSSVRFIHWYQQKPGKAPKRLIYDTSKLASGVPSRFSGSGSGTDFTLTISSLQPEDFATYYCQQWGSSPFTFGQGTKVEIKGSTSGGGSGGGSGGGGSEVQLVESGGGLVQPGGSLRLSCAASGFNIKDYYIHWVRQAPGKGLEWVAWIDPEYGDSEFVPKFQGRATMSADTSKNTAYLQMNSLRAEDTAVYYCKTGGFWGRGTLVTVSSEPKSCDKTHTCPPCGGGSSGGGSGGQPREPQVYTLPPSRDELTKNQVSLTCLVKGFYPSDIAVEWESNGQPENNYKTTPPVLDSDGSFFLYSKLTVDKSRWQQGNVFSCSVMHEALHNHYTQKSLSLSPGK"
2,3,"A11 anti-PSCA minibody (other, also called A11 minibody; variant A11) DIQLTQSPSTLSASMGDRVTITCSASSSVRFIHWYQQKPGKAPKRLIYDTSKLASGVPSRFSGSGSGTDFTLTISSLQPEDFATYYCQQWGSSPFTFGQGTKVEIKGSTSGGGSGGGSGGGGSSEVQLVEYGGGLVQPGGSLRLSCAASGFNIKDYYIHWVRQAPGKGLEWVAWIDPENGDTEFVPKFQGRATMSADTSKNTAYLQMNSLRAEDTAVYYCKTGGFWGQGTLVTVSSEPKSCDKTHTCPPCGGGSSGGGSGGQPREPQVYTLPPSRDELTKNQVSLTCLVKGFYPSDIAVEWESNGQPENNYKTTPPVLDSDGSFFLYSKLTVDKSRWQQGNVFSCSVMHEALHNHYTQKSLSLSPGK"
3,1.9,"C5 anti-PSCA minibody (other, also called C5 minibody; variant C5) DIQLIQSPSSLSASVGDRVTITCSASSSVRFIHWYQQKPGKAPKRLIYDTSKLASGVPSRFSGSGSGTDFTLTISSLQPEDFATYYCQQWSSSPFTFGQGTKVEIKGSTSGGGSGGGSGGGGSSEVQLVESGGGLVQPGGSLRLSCAASGFNIKDYYIHWVRQAPGKGLEWVAWIDPENGDTEFVPKFQGRATISADTSKNTVYLQMNSLRAKDTAVYYCKTGGFWGQGTLVTVSSEPKSCDKTHTCPPCGGGSSGGGSGGQPREPQVYTLPPSRDELTKNQVSLTCLVKGFYPSDIAVEWESNGQPENNYKTTPPVLDSDGSFFLYSKLTVDKSRWQQGNVFSCSVMHEALHNHYTQKSLSLSPGK"
